Test results published in publication PMC9034101, “Enzymatic analysis of WWP2 E3 ubiquitin ligase using protein microarrays identifies autophagy-related substrates” (The Journal of Biological Chemistry, 2022).

Molecular target: T1, WWP2 WT (human, UniProt O00308 1-870)
T1 construct: called the ~100 kDa WWP2 protein; Unlabelled WWP2 titrated in the fluorescence anisotropy assays; also called WT WWP2; source: E. coli (BL-21 (DE3) Codon+ or BL21 Rosetta (DE3) pLysS), purified (glutathione agarose, GST removed, size exclusion)
Experiment: fluorescence polarisation; fluorescence anisotropy; 100 nM fluorescein-labeled WBP2, WWP2 titrated; 23 °C; quadratic binding fit
Settings: both partners purified

T1 sequence (O00308 whole entry): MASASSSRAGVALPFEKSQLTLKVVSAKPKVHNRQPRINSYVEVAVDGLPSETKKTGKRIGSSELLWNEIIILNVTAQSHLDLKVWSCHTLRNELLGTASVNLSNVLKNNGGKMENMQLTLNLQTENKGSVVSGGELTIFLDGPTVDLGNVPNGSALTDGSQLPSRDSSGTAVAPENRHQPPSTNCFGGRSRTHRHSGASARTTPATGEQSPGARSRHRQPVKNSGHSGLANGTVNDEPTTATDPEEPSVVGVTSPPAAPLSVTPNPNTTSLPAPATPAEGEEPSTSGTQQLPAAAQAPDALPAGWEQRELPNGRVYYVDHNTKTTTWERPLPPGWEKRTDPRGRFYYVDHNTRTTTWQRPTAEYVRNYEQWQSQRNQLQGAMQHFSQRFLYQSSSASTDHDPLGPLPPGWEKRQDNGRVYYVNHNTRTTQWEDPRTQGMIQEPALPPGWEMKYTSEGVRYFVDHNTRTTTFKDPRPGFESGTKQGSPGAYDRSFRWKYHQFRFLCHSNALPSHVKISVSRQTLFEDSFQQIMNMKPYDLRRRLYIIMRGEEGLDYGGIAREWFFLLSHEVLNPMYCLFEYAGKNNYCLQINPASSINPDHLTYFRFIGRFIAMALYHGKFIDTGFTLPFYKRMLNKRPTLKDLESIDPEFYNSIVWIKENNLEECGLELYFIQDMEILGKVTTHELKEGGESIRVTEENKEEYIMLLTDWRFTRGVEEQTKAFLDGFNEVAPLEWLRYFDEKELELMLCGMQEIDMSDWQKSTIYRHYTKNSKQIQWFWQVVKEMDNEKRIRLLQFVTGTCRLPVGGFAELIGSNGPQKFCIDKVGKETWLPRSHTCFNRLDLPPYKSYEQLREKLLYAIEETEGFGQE

B1: Fluorescein N-terminal-labeled WBP2 (aa. 149-261) (domain or fragment, human, UniProt Q969T9 149-261, looked up)
chain: PSGAYVYPPPVANGMYPCPPGYPYPPPPPEFYPGPPMMDGAMGYVQPPPPPYPGPMEPPVSGPDVPSTPAAEAKAAEAAASAYYNPGNPHNVYMPTSQPPPPPYYPPEDKKTQ
modifications: fluorescein (5/6-carboxyfluorescein, FAM) on the N-terminus
notes: WBP2, human, aa; 149-261, from pET28b-WBP2; Labelled 'with a similar procedure as that used for WWP2' (N-terminal Cys after protease cleavage), so an N-terminal Cys and loss of the tag may apply; also called FAM labeled WBP2; fluorescein-labeled WBP2; source: E. coli Rosetta pLysS, purified (Ni-NTA, Superdex 75), fluorescein labelled
With B1 the Kd was 3.7 µM.
